{"source": "paper PMC3097287", "origin": "cited, not measured here", "key": {"ANP (Rattus norvegicus)": {"molecular_target": "ANP (Rattus norvegicus) (UniProt P01161)", "sequence (P01161 123-150)": "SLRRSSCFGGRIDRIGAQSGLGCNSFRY"}, "[1]": {"molecular_target": "NPRA ECD (Rattus norvegicus) (UniProt P18910)", "test": "sedimentation equilibrium"}, "[2]": {"molecular_target": "NPRA ECD (Rattus norvegicus) (UniProt P18910)", "test": "sedimentation equilibrium", "remark": "listed apart in the source"}}, "note": "Where two headings read alike, the source gives them in different places.", "data": [{"substance": "NPRA ECD (from UniProt P18910)", "values": [{"measurement": "Kd", "setting": "ANP (Rattus norvegicus)", "value": 0.001, "unit": "µM"}, {"measurement": "Kd", "setting": "[1]", "value": 0.01, "unit": "µM"}, {"measurement": "Kd", "setting": "[2]", "value": 0.5, "unit": "µM"}]}]}
